The values that follow are results of earlier work, collected in publication PMC8790524.

Data set [1] addresses IL12Rβ1 ECD (Homo sapiens) (UniProt P42701). Kind of data set: ITC.
The target of another data set is IL23R ECD (Homo sapiens) (UniProt Q5VWK5). Nature of the data set: ITC. For orientation: ITC needs no label: the signal is the heat of the interaction.
Chain of IL23R ECD (Homo sapiens) (Q5VWK5 24-355): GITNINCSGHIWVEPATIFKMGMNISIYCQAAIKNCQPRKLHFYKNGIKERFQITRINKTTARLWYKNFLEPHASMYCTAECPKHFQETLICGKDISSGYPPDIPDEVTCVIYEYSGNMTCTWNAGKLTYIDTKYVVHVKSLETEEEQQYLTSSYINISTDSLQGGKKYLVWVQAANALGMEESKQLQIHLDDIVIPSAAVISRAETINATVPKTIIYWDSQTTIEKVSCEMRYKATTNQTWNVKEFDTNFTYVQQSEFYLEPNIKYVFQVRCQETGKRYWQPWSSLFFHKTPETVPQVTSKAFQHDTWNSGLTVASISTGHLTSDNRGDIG

Chain of IL-23 (Q9NPF7 20-189): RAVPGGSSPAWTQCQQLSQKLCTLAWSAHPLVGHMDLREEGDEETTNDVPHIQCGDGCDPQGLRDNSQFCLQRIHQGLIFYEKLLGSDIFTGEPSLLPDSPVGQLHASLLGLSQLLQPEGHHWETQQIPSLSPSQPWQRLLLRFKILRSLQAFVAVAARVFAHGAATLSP
Chain of IL-23 (P29460 23-328, further chain): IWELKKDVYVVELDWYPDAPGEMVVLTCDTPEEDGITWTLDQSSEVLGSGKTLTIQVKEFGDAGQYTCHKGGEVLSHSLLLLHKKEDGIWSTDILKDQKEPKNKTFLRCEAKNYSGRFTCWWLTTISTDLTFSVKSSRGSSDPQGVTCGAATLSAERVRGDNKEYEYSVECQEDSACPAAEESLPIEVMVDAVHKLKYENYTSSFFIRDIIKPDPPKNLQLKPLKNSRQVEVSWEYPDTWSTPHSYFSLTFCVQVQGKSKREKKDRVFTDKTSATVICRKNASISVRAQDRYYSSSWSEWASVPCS

On to IL-23 (from UniProt Q9NPF7), for which the Kd (in general, the concentration at which binding is half-saturated) in data set [1] was 2000 nM; with IL23R ECD (Homo sapiens) it was 44 nM.
